Experimental data from PMC3466262, “Crystal Structure of ATV^ORF273, a New Fold for a Thermo- and Acido-Stable Protein from the Acidianus Two-Tailed Virus” (PLoS ONE, 2012).

Columns and labels:
[1] = target: the molecule itself; test: SEC-MALS; Shodex KW803 column, 20 mM Hepes pH 7.4, 100 mM NaCl; protein injected at 4 mg/mL (121 uM)
[2] = target: the molecule itself; test: SEC-MALS; Shodex KW803 column, 20 mM citrate buffer pH 3.6, 150 mM NaCl; protein injected at 4 mg/mL (121 uM)

B1: ATV^ORF273, virion protein of the Acidianus two-tailed virus (recombinant, C-terminal hexa-histidine tag) (natural protein)
chain: MGEKITEEREFQSISEIPEEEIDATNDEEKLADIVENEIEKEIRKSKTRKCKTIENFYYYILRDGKIYPASDYDIEVEKGKRSANDIYAFVETDVTRDFDEFLFDIDYGLPSISDILKFYLEKAGFRIANEVPTPNLKYYIHAVVEFGEDRPQYLAVNIYDIDSLARALRIPQIVEQKLGNKPRTITADEFNDIERIVAEEQPILAGYTYDEALRIPYHYYVDHNNSFKDDALKIAHAYLQLFPTPYQVCYEWKARWFNKIDCLKLERLKPSS
notes: ATV ORF273, virion protein of Acidianus two-tailed virus, UniProt Q3V4T6; native molar mass 32154 Da, recombinant protein 32977 Da; The printed masses (32154 Da native, 32977 Da recombinant) fit the whole ORF plus a His6 tag that is still on the protein; no cleavage of the tag is described; Oligomeric state depends on pH: tetramer at pH 7.4 and 8.5, dimer at pH 3.6; The models hold residues …
For B1, the “stoichiometry N” value [1] was 4 and the “stoichiometry N” value [2] was 2.
